Entries after “also recorded” stand apart in the source; their conditions may differ.
Tests used:
4T1 breast tumor cells [1] = assay: 4T1 breast tumor growth in BALB/c mice; format: in vivo
From the text: Female BALB/c mice 6 to 8 weeks old were purchased from the Jackson Laboratory (Bar Harbor, […].). Mice were acclimated for at least 1 week before use. Mice were kept in pathogen-free conditions at the Animal Maintenance Facility of the Columbia University of Medical Center and all experiments were approved by the Institutional Animal Care and Use Committee of Columbia University of Medical Center.
(§1) 4T1 cells, a 6-thioguanine-resistant cell line derived from a BALB/c spontaneous mammary carcinoma was obtained from ATCC; TS/A, a murine adenocarcinoma cell line was provided by Dr. Sandra Demaria (Demaria S. et al. Clin Cancer Res. 11:728-34, 2005); and SM1, the BALB/C-derived mammary carcinoma was kindly was provided by Dr. James Allison, University of California, Berkeley. All tumor cell lines were cultured in DMEM, supplemented with 2 mM L-glutamine, 10 mM HEPES, 150 units/ml penicillin/streptomycin, 10% heat-inactivated FCS (Invitrogen), 50 μM 2-mercaptoethanol (Sigma), and 50 mg/L gentamicin (Lanza).
(§2) BALB/c were injected (SC) with 1×10^4 4T1, 1×10^5 TS/A or 2×10^5 SM1 cells, respectively, in the left mammary pad on day 0. Immunotherapy was performed by directly injecting a Tat derivative into the right flank at 0, 7, 12, and 17 days after establishment of tumors. The control group received PBS injection. […] Tumor burden (tumor volume) was measured and recorded three times weekly. Animals were sacrificed when tumors reached a volume of 15 mm in diameter and the tumors harvested and weighed.
The therapeutic effect of systemic administration of synthetic, Tat-derived compositions in murine models of breast cancer was investigated. To compare the relative protection conferred by a small panel of different derivatives against primary breast tumor growth, female BALB/c mice were injected with 1×10^4 4T1 breast tumor cells SC into the mammary pad, and then treated with 400 ng partially-purified Tat derivatives at day 0, 7, 14 and 21 (SC injection in PBS) into the draining axillary lymph nodes.

Human monocytes = assay: CD86 expression on human monocytes cultured with Tat derivative; format: cell-based; settings: human monocytes cultured 24-28 hours; compared with ISS (TLR) or LPS
Method: Human monocytes were cultured for 24-28 hours with a Tat derivative (Nani-P2), an immunostimulatory sequence (ISS) of a toll-like receptor (TLR) (FIG. 1) or lipopolysaccharide (LPS) (FIG. 2) and the cells were then washed and stained with fluorescent-labeled CD86.

4T1 breast tumors = assay: Kaplan-Meier survival of mice bearing 4T1 breast tumors; format: in vivo, BALB/c mice; settings: for survival: day 47
Method: as §2
Data were statistically analyzed using Student's t-test (Graph Pad Prism version 5; GraphPad). Data from animal survival experiments were statistically analyzed using log-rank test (Graph Pad Prism version 5).
To determine whether Nani-P2 treatment could extend survival in addition to shrinking primary tumors in mice, treatment protocols using various dosing schedules and routes (SC, IV or IT) of administration of 40 ng Nani-P2 were performed. Cohorts of ten mice per group were followed for length of survival, as assessed by use of the Kaplan-Meier product limit method. As per Columbia University Medical Center Animal Facility regulations, each mouse was euthanized at a mean tumor diameter of approximately 15 mm, or earlier if the mouse became moribund, making one of these two outcomes the defining criteria for fatality.

4T1 breast tumor cells [2] = assay: 4T1 breast tumor growth in BALB/c mice; format: in vivo; remark: listed apart in the source
TS/A breast cancer cells = assay: TS/A breast carcinoma model; format: in vivo, mice; settings: for primary anti-cancer difference vs control: p<0.01
Method: as §1, §2

B1: Nani-P2: HIV Tat derivative polypeptide, SEQ ID NO: 3; derivatized Tat amino terminus from an African Green Monkey variant SIV (protein)
chain: MDPKGEEDQDVSHQDLIKQYRKPRTACNNCYCKKCCFHCYACFLRKGLGITYHAFRTRRKKIASADRIPVPQQSISIRGRDSQTTQESQKKVEEQAKANLRISRKNLGDETRGPVGAGN
modifications: Nani-P2 modified HIV Tat sequence
notes: derivatized Tat amino terminus from an African Green Monkey variant SIV
- tumor burden compared to control mice receiving PBS (4T1 breast tumor cells [1]; 400 ng partially-purified derivative SC day 0, 7, 14, 21, apparent from day 15 (p<0.05)): significantly reduced tumor burden
- decrease of tumor burden on average (4T1 breast tumor cells [1]; SC therapy initiated on day 0 after tumor cell injection): 53%
- difference in primary tumor burden between Nani-P2 and Nani-P1-treated tumors (4T1 breast tumor cells [1]; day 21 (final dosing), 400 ng SC, p<0.01): 18 mm^3
- anti-tumor efficacy on increasing the dose (4T1 breast tumor cells [1]; dose increased to 400 ng and 2 μg (data not shown)): no further anti-tumor efficacy
- expression of CD86 (Human monocytes): higher expression of CD86 than either ISS (TLR) or LPS
- survival, intratumoral administration (4T1 breast tumors; IT, 40 ng weekly x3, tumors established fourteen days): slightly inferior to SC administration
- survival (4T1 breast tumors; IV, 40 ng weekly x3, tumors established fourteen days, p<0.005): 60%
- survival (4T1 breast tumors; SC, 40 ng weekly x3, tumors established fourteen days, p<0.05): 20%
- treated mice still alive (4T1 breast tumors; day 48, 40 ng SC, 4 doses over 21 days from day 0, p<0.001): 35%
- duration of tumor growth inhibition and survival benefits past the last dosing (4T1 breast tumors; established 4T1 tumors, treated intravenously): at least 36 days
- difference in mean tumor volume vs control group (4T1 breast tumor cells [2]; 4 ng or 40 ng per mouse, four times over 21 days): highly significant
- primary tumor burden vs PBS control, established tumors (4T1 breast tumor cells [2]; 40 ng IV weekly for three weeks from day 14, trial 50 days, p<0.01): statistically significant benefit in primary tumor suppression; also recorded: highly significant
- animals with complete remission, disease-free (4T1 breast tumor cells [2]; 40 ng IV weekly x3 from day 14, at 50 days): 1/10 and One of 10
- mice with regression of tumor at the initial treatment (4T1 breast tumor cells [2]; 40 ng IV, initial treatment on day 14): 7/10
- decrease of tumor burden on average at maximal effect (4T1 breast tumor cells [2]; SC therapy begun on day 13, tumors about 5 mm in diameter): 52%
- breast tumor growth inhibitory effect on 4T1 tumors (4T1 breast tumor cells [2]; highly-purified, SC, 0.4 ng to 40 ng per dose): dose-dependent
- suppression of growth (TS/A breast cancer cells; 0.4 ng SC): ~50%
- primary anti-cancer difference vs control (TS/A breast cancer cells; 40 ng SC): highly significant
- total remission rate (TS/A breast cancer cells; at 30 days): 40%
- primary anti-cancer difference vs control (TS/A breast cancer cells; lowest dose (0.4 ng SC)): highly significant
